{"source": "paper PMC3338619", "about": "“Ligand Binding Study of Human PEBP1/RKIP: Interaction with Nucleotides and Raf-1 Peptides Evidenced by NMR and Mass Spectrometry” (PLoS ONE, 2012)", "key": {"[1]": {"target": "T1, Human Phosphatidylethanolamine binding protein 1 (hPEBP1) (human, UniProt P30086 1-187)", "T1 construct": "the NMR assignment counts 187 residues in all, from Met1 to Lys187; The NMR samples were uniformly 15N-labelled; also called RKIP; source: E. coli BL21 (DE3), pET31b, purified (anion exchange, cation exchange); 15N-labelled for NMR, non-labelled recombinant for mass spectrometry", "T1 sequence (P30086 whole entry)": "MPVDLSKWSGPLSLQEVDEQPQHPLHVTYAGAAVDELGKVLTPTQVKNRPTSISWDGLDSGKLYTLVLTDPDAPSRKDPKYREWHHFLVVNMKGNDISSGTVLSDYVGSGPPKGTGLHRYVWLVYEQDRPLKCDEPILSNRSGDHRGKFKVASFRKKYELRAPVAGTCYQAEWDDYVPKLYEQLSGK", "assay": "native MS; hPEBP1 incubated with a range of peptide concentrations, bound protein fraction measured by ESI-MS; ammonium acetate 20 mM, pH 6.6, 20°C", "details": "both partners purified"}, "[2]": {"target": "T1, Human Phosphatidylethanolamine binding …", "assay": "native MS; hPEBP1 incubated with a range of peptide concentrations, bound protein fraction measured by ESI-MS; ammonium bicarbonate (ABC), pH 7.4, 25°C", "details": "both partners purified"}}, "note": "Square brackets hold non-standard residues; d marks the D form. Ends that are not written are not given here. pY = N[C@@H](Cc1ccc(OP(=O)(O)O)cc1)C(=O)O; pS = N[C@@H](COP(=O)(O)O)C(=O)O", "data": [{"binder": "RPRGQRD[pS][pS]Y[pY]WEIEASEV (Raf-1 N-region, residues 331-349; three phospho-amino acids at Ser338, Ser339 and Tyr341; also called 3P; Raf-1 peptide; Raf-1 peptide in tri-phosphorylated form; source: synthetic peptide (solid-phase, Fmoc strategy))", "note": "[tri-phosphorylated Raf-1 peptide (residues 331-349)]", "values": [{"measurement": "Kd", "setting": "[1]", "result": "45 ± 12", "unit": "µM"}, {"measurement": "Kd", "setting": "[2]", "result": "11 ± 3", "unit": "µM"}]}]}
